Key:
Settings in all cases: both partners purified
[1] = target: T1, calmodulin purified from bovine brain (bovine, UniProt P62157 1-149); experiment: pull-down; 50 pmol GST-fusion protein with purified bovine brain CaM (50 pmol) in 250 µl of 100 mM Tris-HCl pH 7.5 with 0.1 mM CaCl2; 4°C; glutathione-sepharose 4B beads; immunoblot with anti-CaM; for the mutants density of CaM against loaded GST-fusion protein
T1 construct: calmodulin, bovine brain; also called CaM; pure bovine brain CaM; source: purified from bovine brain; bought: Calbiochem

[2] = target: T2, dansyl-calmodulin (bovine brain) (bovine, UniProt P62157 1-149, dansyl (0.18–0.34 mol of dansyl moiety per mol of CaM), site not stated); experiment: dansyl-CaM fluorescence emission spectrum; 106 nM dansyl-CaM, 500 nM peptide, 0.1 mM calcium, 1 hour at room temperature; excitation 340 nm, emission 425–600 nm; compared with dansyl-CaM in 10 mM EGTA
T2 construct: calmodulin, bovine brain, dansylated; also called dansyl-CaM; source: CaM purified from bovine brain (bought: Calbiochem), labelled with dansyl chloride

[3] = target: T2, dansyl-calmodulin (bovine brain); experiment: other fluorescence titration; peptides (25–2000 nM) with 147 nM dansyl-CaM, 0.1 mM calcium, 1 hour at room temperature; emission at 485 nm; apparent dissociation constants

B1: GST-ATi3N(213–234) (domain or fragment)
chain: TSYTLIWKALKKAYEIQKNKPR
notes: also called GST-N-terminus of the i3 loop; source: E. coli BL21, purified (glutathione sepharose 4B); not shown: GST, N-terminal, kept
B1: binds [1].

B2: ATct(302–317) peptide (peptide)
peptide: YGFLGKKFKKYFLQLL
notes: also called 1-5-10 motif peptide of the carboxyl tail; source: synthetic peptide (MUSC Proteogenomics Facility, HPLC purified)
For B2, the “fold increase in dansyl-CaM fluorescence intensity at 482 nm (500 nM peptide)” value [2] was ~3.5 fold and the Kd [3] was 79.4 nM.

B3: ATct(302–317)F313A peptide (peptide)
peptide: YGFLGKKFKKYALQLL
notes: AT1A receptor carboxyl tail, amino acids 302–317, with F313A; source: synthetic peptide (MUSC Proteogenomics Facility, HPLC purified)
Work on B3 yielded a Kd [3] of 388 nM.

B4: ATct(302–317)F309A peptide (peptide)
peptide: YGFLGKKAKKYFLQLL
notes: AT1A receptor carboxyl tail, amino acids 302–317, with F309A; source: synthetic peptide (MUSC Proteogenomics Facility, HPLC purified)
For B4, the Kd [3] was 308 nM.

B5: ATi3(214–231) peptide (peptide)
peptide: SYTLIWKALKKAYEIQKN
notes: also called 1–12 motif peptide of the i3 loop; source: synthetic peptide (MUSC Proteogenomics Facility, HPLC purified)
For B5, the “fold increase in dansyl-CaM fluorescence intensity at 486 nm (500 nM peptide)” value [2] was ~3.2 fold and the Kd [3] was 177 nM.

B6: GST-ATctN(297–324) (domain or fragment)
chain: LNPLFYGFLGKKFKKYFLQLLKYIPPKA
notes: N-terminal part of the carboxyl tail of the AT1A receptor, amino acids 297–324; stop codon after 324A in GST-ATct(297–359); also called GST-N-terminus of carboxyl tail; source: E. coli BL21, purified (glutathione sepharose 4B); not shown: GST, N-terminal, kept
B6: binds [1].

B7: GST-ATi3(213–242) (domain or fragment)
chain: TSYTLIWKALKKAYEIQKNKPRNDDIFRII
notes: amplified from pcDNA3.1-AT1A receptor; cloned in pGEX-4T-1 at BamH I and EcoR I downstream of GST; also called GST-i3 loop; i3 loop of the AT1A receptor; source: E. coli BL21, purified (glutathione sepharose 4B); not shown: GST, N-terminal, kept
B7: binds [1].

Reference: article PMC3673938, “Two Distinct Calmodulin Binding Sites in the Third Intracellular Loop and Carboxyl Tail of Angiotensin II (AT1A) Receptor” (PLoS ONE, 2013)
